Experimental data: publication PMC8477192, “An ionic lock and a hydrophobic zipper mediate the coupling between an insect pheromone receptor BmOR3 and downstream effectors” (The Journal of Biological Chemistry, 2021)
Each block holds one substance with its values, some of them ahead of it.

How the values were obtained:
YFP-BmOrco (Bombyx mori) [1] = assay: FRET or BRET; saturation BRET in living HEK293 cells, no agonist; fixed Rluc donor, increasing YFP acceptor plasmid; coelenterazine h 5 μM; Lyn-YFP as negative control
YFP-BmOrco (Bombyx mori) [2] = assay: FRET or BRET; intermolecular BRET in living HEK293 cells after bombykal for 5 min (dose response or ΔBRET); Rluc-BmOR3 with YFP-BmOrco, or Rluc-BmOrco with YFP-BmOR3; pretreatment with 100 ng/ml pertussis toxin without significant effect
Rluc-BmOrco = assay: intermolecular BRET; conditions: HEK293 cells; bombykal-induced; parent: est. 0.053; read off a plot
Rluc-BmArr = assay: intermolecular BRET; conditions: read off a plot
BmOR3 and BmOrco = assay: CalfluxVTN Ca2+ assay (BRET-based calcium sensor); type: cell-based, Bombyx mori; conditions: HEK293 cells; pretreatment 100 ng/ml
Procedure: HEK293 cells were cotransfected with plasmids encoding WT BmOR3 and BmOrco or their mutants, or AT1R together with CalfluxVTN probe. 24 h after transfection, cells were redistributed into 96-well flat-bottomed microplates. After another 24 h, cells were incubated with conventional buffer with Ca^2+ (135 mM NaCl, 5 mM KCl, 1 mM CaCl2, 5 mM D-glucose, 10 mM Hepes; pH = 7.4) or with Ca^2+-free buffer (135 mM NaCl, 5 mM KCl, 1 mM EGTA, 5 mM D-glucose, 10 mM Hepes; pH = 7.4), and stimulated with different concentrations of Bombykal (or AngII). The BRET ratio between Venus and Nluc was measured before (baseline) and after the addition of the Nluc substrate furimazine (5 μM) using a Mithras LB 940 multimode reader (Berthold Technologies). The BRET signal was calculated as ratio of emission of Venus (530 nm) to Nluc (460 nm). The baseline value was subtracted from the bombykal-stimulated BRET signal to obtain the ΔBRET value.

BmOR3–BmOrco = molecular target: T1, BmOR3–BmOrco (Bombyx mori, UniProt Q5FBE0); assay: BmOR3–BmOrco intermolecular BRET assay; type: cell-based; conditions: HEK293 cells; pretreatment 100 ng/ml
T1 sequence (Q5FBE0 1-439): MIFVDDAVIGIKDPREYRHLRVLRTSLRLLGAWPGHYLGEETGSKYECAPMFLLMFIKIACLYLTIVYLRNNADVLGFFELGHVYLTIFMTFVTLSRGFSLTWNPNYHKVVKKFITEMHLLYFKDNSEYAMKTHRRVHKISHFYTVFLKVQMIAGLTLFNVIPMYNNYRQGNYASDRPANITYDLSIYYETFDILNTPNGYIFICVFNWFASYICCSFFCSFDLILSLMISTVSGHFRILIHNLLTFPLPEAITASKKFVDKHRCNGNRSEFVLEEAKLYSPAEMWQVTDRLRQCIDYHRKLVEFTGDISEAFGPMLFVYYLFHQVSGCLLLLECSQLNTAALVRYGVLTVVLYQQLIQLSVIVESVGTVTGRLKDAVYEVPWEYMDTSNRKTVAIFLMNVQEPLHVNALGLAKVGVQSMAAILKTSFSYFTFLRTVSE
T1 sequence (Q7YT34 1-472 partner): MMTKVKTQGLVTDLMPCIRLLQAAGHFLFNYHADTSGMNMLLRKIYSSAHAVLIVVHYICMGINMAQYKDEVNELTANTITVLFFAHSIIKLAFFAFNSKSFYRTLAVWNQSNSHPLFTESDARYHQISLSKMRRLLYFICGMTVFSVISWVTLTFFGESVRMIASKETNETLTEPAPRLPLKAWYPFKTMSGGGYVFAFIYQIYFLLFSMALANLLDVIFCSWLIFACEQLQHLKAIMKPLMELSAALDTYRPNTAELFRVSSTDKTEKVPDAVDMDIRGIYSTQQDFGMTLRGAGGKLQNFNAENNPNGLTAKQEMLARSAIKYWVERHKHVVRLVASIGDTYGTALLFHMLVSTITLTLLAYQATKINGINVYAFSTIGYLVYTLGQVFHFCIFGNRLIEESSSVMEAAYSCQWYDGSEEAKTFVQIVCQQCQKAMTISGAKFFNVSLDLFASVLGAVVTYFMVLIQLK
Procedure: HEK293 cells were cotransfected with the N-terminal Rluc-tagged WT BmOR3 together with N-terminal YFP-fused BmOrco plasmids or their mutants. Twenty-four hours after transfection, cells were distributed into a 96-well microplate. After another 24 h, the cells were stimulated with different concentrations of bombykal for 5 min. BRET between RLuc and YFP was measured using a Mithras LB 940 multimode reader after the addition of the RLuc substrate coelenterazine h (5 μM). The BRET signal was calculated as the ratio of emission of YFP (530 nm) to RLuc (485 nm). For the saturation BRET between Rluc-BmOrco and YFP-BmOR3, HEK293 cells were transfected with a fixed amount of Rluc-BmOrco and increasing amounts of YFP-BmOR3. The BRET signal between RLuc and YFP was directly measured after the addition of the substrate coelenterazine h (5 μM).

BmOR3 [3] = molecular target: T2, BmOR3 (Bombyx mori, UniProt Q5FBE0); assay: Arrestin recruitment BRET assay; type: cell-based; conditions: HEK293 cells; pretreatment
Procedure: HEK293 cells were transiently cotransfected with the N-terminal YFP-tagged BmOR3 together with N-terminal Rluc-fused β-arrestin-1, β-arrestin-2, or BmArr plasmids. Twenty-four hours after transfection, cells were distributed into a 96-well microplate and incubated for additional 24 h. The cells were stimulated with varying concentrations of bombykal for 10 min, and the BRET signal between YFP (530 nm) and Rluc (485 nm) was measured after the addition of the Rluc substrate coelenterazine h (5 μM) using a Mithras LB 940 multimode reader (Berthold Technologies). The BRET signal was calculated as the ratio of emission of YFP to Rluc.

BmOR3 [4] = molecular target: T2, BmOR3; assay: Arrestin-kinase BRET assay; type: cell-based; conditions: HEK293 cells transfected with BmOR3; pretreatment
Procedure: Twenty-four hours after transfection, cells were distributed into a 96-well microplate. After another 24 h, the cells were stimulated with 1 μM bombykal (for BmOR3-transfected cells) or 1 μM AngII for 10 min (for AT1R-transfected cells). BRET between RLuc and YFP was measured using a Mithras LB 940 multimode reader after the addition of the RLuc substrate coelenterazine h (5 μM). The BRET signal was calculated as the ratio of emission of YFP (530 nm) to RLuc (485 nm).

YFP-BmOR3 [5] = molecular target: T3, YFP-BmOR3 (Bombyx mori, UniProt Q5FBE0 1-439); assay: intermolecular BRET; conditions: bombykal-induced, read off a plot
T3 construct: BmOR3, pheromone (bombykal) receptor of Bombyx mori; also called N-terminal YFP-tagged BmOR3; YFP-WT-BmOR3; source: HEK293, transfected, in living cells; not shown: YFP, N-terminal, kept
T3 sequence (looked up): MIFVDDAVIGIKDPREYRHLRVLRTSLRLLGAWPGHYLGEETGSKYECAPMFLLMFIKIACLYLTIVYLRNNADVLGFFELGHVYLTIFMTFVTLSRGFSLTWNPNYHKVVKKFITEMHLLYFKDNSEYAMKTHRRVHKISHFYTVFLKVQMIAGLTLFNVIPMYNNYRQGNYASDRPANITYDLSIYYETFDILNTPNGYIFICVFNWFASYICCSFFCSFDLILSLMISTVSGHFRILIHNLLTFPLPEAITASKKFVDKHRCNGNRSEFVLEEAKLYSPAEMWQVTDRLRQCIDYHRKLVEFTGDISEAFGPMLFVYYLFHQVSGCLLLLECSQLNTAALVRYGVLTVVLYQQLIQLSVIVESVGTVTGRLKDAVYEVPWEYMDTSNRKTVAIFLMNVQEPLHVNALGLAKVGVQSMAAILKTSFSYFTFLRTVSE

[6] = molecular target: Rluc-BmOrco (Bombyx mori)
YFP-BmOR3 [7] = molecular target: T3, YFP-BmOR3; assay: FRET or BRET; arrestin recruitment BRET in living HEK293 cells; YFP-BmOR3 (WT or mutant) with Rluc-fused arrestin; bombykal for 10 min; pertussis toxin without effect; enhanced by BmOrco coexpression
[8] = HEK293 cells, bombykal, parent: est. 0.612
[9] = HEK293 cells, vehicle, parent: est. 0.592
[10] = bombykal-stimulated, parent: est. 0.012
[11] = HEK293 cells, parent: est. 0.027

response (Rluc-BmOrco): 0.041 ΔBRET
Substance: YFP-BmOR3 (from UniProt Q5FBE0) R391E; K392E

response (Rluc-BmArr; [10]): 0.0086 ΔBRET
Substance: YFP-BmOR3 (from UniProt Q5FBE0) T42A

response (YFP-BmOR3 [5]; [11]): -0.006 ΔBRET
response (YFP-BmOR3 [5]; parent: est. 0.015): -0.005 ΔBRET
Substance: Rluc-BmOrco Y464A; V467A; L468A; L471A

response (Rluc-BmArr; [10]): 0.0024 ΔBRET
Substance: YFP-BmOR3 (from UniProt Q5FBE0) T25A; S26A; T42A

Second part, the substance before the results:

Substance: Rluc-BmOR3 (receptor)
BRET50 (receptor expression ratio) (receptor expression ratio) (YFP-BmOrco (Bombyx mori) [1]): 1
EC50 of bombykal for the BRET increase (YFP-BmOrco (Bombyx mori) [2]): 36 nM

Substance: YFP-BmOR3 (from UniProt Q5FBE0) W103A
response (Rluc-BmArr; [8]): 0.605 BRET Ratio
response (Rluc-BmArr; [9]): 0.594 BRET Ratio

Substance: pertussis toxin [PTX]
effect of pretreatment on bombykal-induced complex-regulated calcium influx (BmOR3 and BmOrco): no significant effects
effect of pretreatment on bombykal-induced BmOR3–BmOrco complex formation (BmOR3–BmOrco): no significant effects
effect of pretreatment on bombykal-induced β-arrestin recruitment to BmOR3 (BmOR3 [3]): not affected
effect of pretreatment on bombykal-induced association of β-arrestin with ERK, SRC, and AKT (BmOR3 [4]): not significantly affected

Substance: YFP-BmOR3 (from UniProt Q5FBE0) V394A; L398A
response (Rluc-BmOrco): 0.041 ΔBRET

Substance: YFP-BmOR3 (from UniProt Q5FBE0) W209A
response (Rluc-BmArr; [8]): 0.604 BRET Ratio
response (Rluc-BmArr; [9]): 0.592 BRET Ratio

Substance: YFP-BmOR3 (from UniProt Q5FBE0 1-439) (receptor)
bombykal (1 μM)-stimulated Ca2+ response (CalfluxVTN BRET sensor) in HEK293 cells coexpressing BmOR3 and BmOrco, relative to angiotensin II through AT1R (% of the AT1R response) [6]: 70

Substance: Rluc-BmArr (natural protein)
EC50 of bombykal for the BRET increase (quantity not given) (YFP-BmOR3 [7]): 90 nM

Substance: YFP-BmOR3 (from UniProt Q5FBE0) T25A
response (Rluc-BmArr; [10]): 0.0082 ΔBRET

Substance: Rluc-BmOrco V428A; V431A
response (YFP-BmOR3 [5]; [11]): 0.031 ΔBRET
